Measured values from US9598677B2, “Use of human biliverdin reductase and fragments thereof for the treatment of protein kinase C-delta and ERK related conditions” (University of Rochester, priority 2009, dated 2017).
Entries after “also recorded” stand apart in the source; their conditions may differ. Ends that are not written are not given here.

Legend:
Elk1 = test: Elk1-luciferase reporter assay; format: cell-based, human; conditions: myristoylated peptide 2 h prior to PMA, control PMA-treated cells, FIG. 10C
Protocol: Elk1-luciferase reporter assay: Cells were co-transfected with the reporters pFA2-Elk1, pFR-Luc (Stratagene, La Jolla, Calif.) and pCMV-β-galactosidase, and other plasmids, as necessary. Cells were lysed; promoter activity was determined by luciferase assay and normalized on β-galactosidase.

recombinant human PKC-δ [1] = conditions: Nishikawa et al. 1997; read-out: reported Km for the commercial substrate; cited from earlier work
recombinant human PKC-δ [2] = test: PKC-δ kinase assay in vitro (p81 filter / autoradiography); format: biochemical
Protocol: Measurement of PKC-δ activity: In vitro kinase activity assays were performed with active recombinant human PKC-δ kinase (as a GST fusion protein). PKC-δ assay in vitro was performed using 5 ng purified enzyme in a 50 μl assay containing 50 mM HEPES pH 7.4, 10 mM MgCl2, 0.2 mM DTT, sonicated lipid activators (0.5 μg phosphatidylserine and 0.05 μg diacylglycerol) or lipid activators plus PMA (as indicated in appropriate experiments) and PKC-δ substrates. The reaction was started by the addition of 50 μM ATP labeled with 5 μCi [γ-^32P]-ATP. Incubation was performed for 15 min at 30° C., unless otherwise stated. The reaction was terminated on ice, either by the addition of Laemmli buffer followed by SDS-PAGE, transferred to PVDF membrane, and autoradiography, or by the addition of 1 volume 10% phosphoric acid for p81 transfer as described below. For autophosphorylation of PKC-δ 20 μM ATP was used to start the 40-min reaction.
When hBVR or its mutants were tested for their effect on PKC-δ activity, they were pre-incubated for 5 min at room temperature with the PKC prior to substrate addition. The hBVR-derived peptides were used at concentrations indicated in appropriate figures.
When hBVR or its mutants were assayed as the sole substrates for PKC, the incubation conditions were as described above and the incubation was for 40 min at 30° C. unless specified otherwise. The reaction was terminated by the addition of Laemmli buffer, and the reaction products were detected by SDS-PAGE, transfer to PVDF membrane, and autoradiography.
Measurement of PKC-δ activity: PKC-δ assay in vitro was performed using 0.1 ng/μl purified recombinant human PKC-δ kinase with reaction conditions specified by the manufacturer. Effector molecules such as hBVR or peptides were added 5 min prior to substrate. The reaction was started by the addition of [γ-^32P]-ATP (Lerner-Marmarosh et al., “Human Biliverdin Reductase: A Member of the Insulin Receptor Substrate Family with Serine/Threonine/Tyrosine Kinase Activity,” Proc. Natl. Acad. Sci. U.S.A. 102(20):7109-7114 (2005), which is hereby incorporated by reference in its entirety). Reaction products were detected either by gel electrophoresis and autoradiography or by the p81 filter assay. PKC-δ activity on agarose beads was also measured. Cell lysates were immunoprecipitated with anti-PKC-δ antibody followed by protein A/G agarose. The immunoprecipitates were used in kinase reactions containing 50 μM PKC-δ specific peptide substrate as above; incorporation of ^32P was measured by p81 method.

PKC-δ = PKC-δ (Homo sapiens, UniProt Q05655); test: GST-hBVR pull-down of PKC-δ from cell lysate; format: binding; set-up: The human PKC-δ open reading frame was also cloned in the same vectors; expressed in transfected cells; host or cells: HEK 293A (PKC-δ); E. coli, pGEX-4T2 (GST-hBVR); conditions: 30 min and 120 min incubation, FIG. 2A
Protocol: Cell Culture, infection, transfection, GST pull-down and co-immunoprecipitation: HEK 293A cells were grown in Dulbecco's Modified Eagle Medium (Invitrogen) containing 10% fetal bovine serum and 1% penicillin-G/streptomycin for 24 h or until the cells reached 70% confluency. Depending on the experiment, cells were subsequently transfected with up to 5 μg of pcDNA3-hBVR or pcDNA3-PKC-δ plasmid using Transfectin Lipid Reagent (Bio-Rad, Hercules, Calif.) in 10 cm plates. Western blotting determined overexpression of hBVR or PKC-δ. To prepare si-hBVR or sc-hBVR (containing a randomized variant of the sihBVR sequence), pSuper-Retro-si-hBVR (Miralem et al., “Small Interference RNA-Mediated Gene Silencing of Human Biliverdin Reductase, But Not That of Heme Oxygenase-1, Attenuates Arsenite-Mediated Induction of the Oxygenase and Increases Apoptosis in 293A Kidney Cells,” J. Biol. Chem. 280:17084-17092 (2005), which is hereby incorporated by reference in its entirety) or sc-hBVR, respectively, were introduced into 293A cells for packaging, and the si-hBVR or sc-hBVR retrovirus were titrated using NIH3T3 cells. […] Proteins were separated by SDS-page and detected by immunoblotting using anti-PKC-δ antibodies.

Chain of PKC-δ (Q05655 whole entry): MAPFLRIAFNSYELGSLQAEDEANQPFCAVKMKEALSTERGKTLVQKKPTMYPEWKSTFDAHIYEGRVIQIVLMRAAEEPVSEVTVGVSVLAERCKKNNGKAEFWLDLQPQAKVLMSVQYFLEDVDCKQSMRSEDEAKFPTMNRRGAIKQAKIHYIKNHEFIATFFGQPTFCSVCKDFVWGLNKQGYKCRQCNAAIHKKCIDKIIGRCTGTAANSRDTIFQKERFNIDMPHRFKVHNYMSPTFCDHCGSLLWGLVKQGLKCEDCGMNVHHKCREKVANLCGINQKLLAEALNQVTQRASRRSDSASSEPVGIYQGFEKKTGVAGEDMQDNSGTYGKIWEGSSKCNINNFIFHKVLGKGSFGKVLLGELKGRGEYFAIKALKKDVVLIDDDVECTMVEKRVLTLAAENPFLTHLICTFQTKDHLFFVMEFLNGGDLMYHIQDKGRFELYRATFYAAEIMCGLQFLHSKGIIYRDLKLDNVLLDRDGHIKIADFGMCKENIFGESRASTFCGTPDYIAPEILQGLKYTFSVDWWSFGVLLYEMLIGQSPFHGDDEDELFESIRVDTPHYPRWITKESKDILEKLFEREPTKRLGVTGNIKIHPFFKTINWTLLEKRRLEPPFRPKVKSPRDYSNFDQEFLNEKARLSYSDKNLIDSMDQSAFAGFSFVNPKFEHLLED

Molecule: SAFAGFSFVNPKFEHLLED (also: myristoylation, place not given here) [myristoylated PKC-δ bulky Ring motif C-terminal peptide]
- inhibition of Elk1 dependent luciferase expression (Elk1): 90%

Molecule: ARRKRKGSFFGG (PKC-delta substrate) [commercial peptide identified by Nishikawa as the optimal substrate for PKC-δ]
- Km (recombinant human PKC-δ [1]): 0.98 µM

B1: hBVR: purified E. coli expressed human biliverdin reductase (protein)
chain: MNAEPERKFGVVVVGVGRAGSVRMRDLRNPHPSSAFLNLIGFVSRRELGSIDGVQQISLEDALSSQEVEVAYICSESSSHEDYIRQFLNAGKHVLVEYPMTLSLAAAQELWELAEQKGKVLHEEHVELLMEEFAFLKKEVVGKDLLKGSLLFTSDPLEEDRFGFPAFSGISRLTWLVSLFGELSLVSATLEERKEDQYMKMTVCLETEKKSPLSWIEEKGPGLKRNRYLSFHFKSGSLENVPNVGVNKNIFLKDQNIFVQKLLGQFSEKELAAEKKRILHCLGLAEEIQKYCCSRK
modifications: GST tag; Homo sapien
notes: purified E. coli expressed human biliverdin reductase
- PKC-δ kinase activity toward MBP in presence of hBVR (recombinant human PKC-δ [2]; 2 μg GST-hBVR, 12.5 μM MBP, FIG. 1B): increased kinase activity
- PKC-δ autophosphorylation in presence of hBVR (recombinant human PKC-δ [2]; FIGS. 1A, 1C, 7C): enhanced; also recorded: increased
- binding of PKC-δ from cell lysates (PKC-δ): selectively bound PKC-δ
